Measured values from patent US20260176319A1 (KALLYOPE, published 2026).
Starred links: 1 amine or outer side, 2 acyl side, 3 side chain; linkers in the order of their positions; H or OH if unused. Non-standard residues stand in square brackets, D forms with d. No end group written: not given here. *: point of attachment. Trp(7-Me) = Cc1cccc2c(C[C@H](N)C(=O)O)c[nH]c12; C20 diacid = O=C(O)CCCCCCCCCCCCCCCCCCC(=O)*; d(γGlu) = O=C(O)[C@@H](CCC(=O)[*:2])N[*:1]; C18 diacid = O=C(O)CCCCCCCCCCCCCCCCC(=O)*; γGlu = O=C(O)[C@H](CCC(=O)[*:2])N[*:1]; Palmitoyl = CCCCCCCCCCCCCCCC(=O)*; Nle = CCCC[C@H](N)C(=O)O; AEEA = NCCOCCOCC(=O)O; βAla = NCCC(=O)O

B1: Peptide 159 (peptide)
peptide: {C18 diacid}-[γGlu][AEEA][AEEA]GNHWAV[dA][dH]L[Nle]-NH2
SMILES: CCCC[C@H](NC(=O)[C@H](CC(C)C)NC(=O)[C@@H](Cc1c[nH]cn1)NC(=O)[C@@H](C)NC(=O)[C@@H](NC(=O)[C@H](C)NC(=O)[C@H](Cc1c[nH]c2ccccc12)NC(=O)[C@H](Cc1c[nH]cn1)NC(=O)[C@H](CC(N)=O)NC(=O)CNC(=O)COCCOCCNC(=O)COCCOCCNC(=O)CC[C@H](NC(=O)CCCCCCCCCCCCCCCCC(=O)O)C(=O)O)C(C)C)C(N)=O
B2: Peptide 161 (peptide)
peptide: {C18 diacid}-[γGlu][AEEA][AEEA][dF]QHWAV[dA]HL[Nle]-NH2
SMILES: CCCC[C@H](NC(=O)[C@H](CC(C)C)NC(=O)[C@H](Cc1c[nH]cn1)NC(=O)[C@@H](C)NC(=O)[C@@H](NC(=O)[C@H](C)NC(=O)[C@H](Cc1c[nH]c2ccccc12)NC(=O)[C@H](Cc1c[nH]cn1)NC(=O)[C@H](CCC(N)=O)NC(=O)[C@@H](Cc1ccccc1)NC(=O)COCCOCCNC(=O)COCCOCCNC(=O)CC[C@H](NC(=O)CCCCCCCCCCCCCCCCC(=O)O)C(=O)O)C(C)C)C(N)=O
B3: Peptide 152 (peptide)
peptide: {C18 diacid}-[γGlu][AEEA][AEEA]QHWAV[βAla]HL[Nle]-NH2
SMILES: CCCC[C@H](NC(=O)[C@H](CC(C)C)NC(=O)[C@H](Cc1c[nH]cn1)NC(=O)CCNC(=O)[C@@H](NC(=O)[C@H](C)NC(=O)[C@H](Cc1c[nH]c2ccccc12)NC(=O)[C@H](Cc1c[nH]cn1)NC(=O)[C@H](CCC(N)=O)NC(=O)COCCOCCNC(=O)COCCOCCNC(=O)CC[C@H](NC(=O)CCCCCCCCCCCCCCCCC(=O)O)C(=O)O)C(C)C)C(N)=O
B4: Peptide 158 (peptide)
peptide: {C20 diacid}-[γGlu]RRHWAV[dA]HL[Nle]-NH2
SMILES: CCCC[C@H](NC(=O)[C@H](CC(C)C)NC(=O)[C@H](Cc1c[nH]cn1)NC(=O)[C@@H](C)NC(=O)[C@@H](NC(=O)[C@H](C)NC(=O)[C@H](Cc1c[nH]c2ccccc12)NC(=O)[C@H](Cc1c[nH]cn1)NC(=O)[C@H](CCCNC(=N)N)NC(=O)[C@H](CCCNC(=N)N)NC(=O)CC[C@H](NC(=O)CCCCCCCCCCCCCCCCCCC(=O)O)C(=O)O)C(C)C)C(N)=O
B5: Peptide 154 (peptide)
peptide: {C20 diacid}-[γGlu]RNHWAV[dA]HL[Nle]-NH2
SMILES: CCCC[C@H](NC(=O)[C@H](CC(C)C)NC(=O)[C@H](Cc1c[nH]cn1)NC(=O)[C@@H](C)NC(=O)[C@@H](NC(=O)[C@H](C)NC(=O)[C@H](Cc1c[nH]c2ccccc12)NC(=O)[C@H](Cc1c[nH]cn1)NC(=O)[C@H](CC(N)=O)NC(=O)[C@H](CCCNC(=N)N)NC(=O)CC[C@H](NC(=O)CCCCCCCCCCCCCCCCCCC(=O)O)C(=O)O)C(C)C)C(N)=O
B6: Peptide 165 (peptide)
peptide: {C20 diacid}-[γGlu]GQHWAV[dA]HL[Nle]-NH2
SMILES: CCCC[C@H](NC(=O)[C@H](CC(C)C)NC(=O)[C@H](Cc1c[nH]cn1)NC(=O)[C@@H](C)NC(=O)[C@@H](NC(=O)[C@H](C)NC(=O)[C@H](Cc1c[nH]c2ccccc12)NC(=O)[C@H](Cc1c[nH]cn1)NC(=O)[C@H](CCC(N)=O)NC(=O)CNC(=O)CC[C@H](NC(=O)CCCCCCCCCCCCCCCCCCC(=O)O)C(=O)O)C(C)C)C(N)=O
B7: Peptide 151 (peptide)
peptide: {C20 diacid}-[γGlu][AEEA][AEEA]GQHWAV[dA]HL[Nle]-NH2
SMILES: CCCC[C@H](NC(=O)[C@H](CC(C)C)NC(=O)[C@H](Cc1c[nH]cn1)NC(=O)[C@@H](C)NC(=O)[C@@H](NC(=O)[C@H](C)NC(=O)[C@H](Cc1c[nH]c2ccccc12)NC(=O)[C@H](Cc1c[nH]cn1)NC(=O)[C@H](CCC(N)=O)NC(=O)CNC(=O)COCCOCCNC(=O)COCCOCCNC(=O)CC[C@H](NC(=O)CCCCCCCCCCCCCCCCCCC(=O)O)C(=O)O)C(C)C)C(N)=O
B8: Peptide 160 (peptide)
peptide: {C20 diacid}-[γGlu]GNHWAV[dA][dH]L[Nle]-NH2
SMILES: CCCC[C@H](NC(=O)[C@H](CC(C)C)NC(=O)[C@@H](Cc1c[nH]cn1)NC(=O)[C@@H](C)NC(=O)[C@@H](NC(=O)[C@H](C)NC(=O)[C@H](Cc1c[nH]c2ccccc12)NC(=O)[C@H](Cc1c[nH]cn1)NC(=O)[C@H](CC(N)=O)NC(=O)CNC(=O)CC[C@H](NC(=O)CCCCCCCCCCCCCCCCCCC(=O)O)C(=O)O)C(C)C)C(N)=O
B9: Peptide 153 (peptide)
peptide: {C20 diacid}-[γGlu]GRHWAV[dA]HL[Nle]-NH2
SMILES: CCCC[C@H](NC(=O)[C@H](CC(C)C)NC(=O)[C@H](Cc1c[nH]cn1)NC(=O)[C@@H](C)NC(=O)[C@@H](NC(=O)[C@H](C)NC(=O)[C@H](Cc1c[nH]c2ccccc12)NC(=O)[C@H](Cc1c[nH]cn1)NC(=O)[C@H](CCCNC(=N)N)NC(=O)CNC(=O)CC[C@H](NC(=O)CCCCCCCCCCCCCCCCCCC(=O)O)C(=O)O)C(C)C)C(N)=O
B10: Peptide 13 (peptide)
peptide: Palmitoyl-[d(γGlu)][AEEA][AEEA]GNH[Trp(7-Me)]AV[dA]HL[Nle]-NH2
SMILES: CCCCCCCCCCCCCCCC(=O)N[C@H](CCC(=O)NCCOCCOCC(=O)NCCOCCOCC(=O)NCC(=O)N[C@@H](CC(N)=O)C(=O)N[C@@H](Cc1c[nH]cn1)C(=O)N[C@@H](Cc1c[nH]c2c(C)cccc12)C(=O)N[C@@H](C)C(=O)N[C@H](C(=O)N[C@H](C)C(=O)N[C@@H](Cc1c[nH]cn1)C(=O)N[C@@H](CC(C)C)C(=O)N[C@@H](CCCC)C(N)=O)C(C)C)C(=O)O

Target: human GRP receptor (human, UniProt P30550 1-384)
Sequence (P30550 whole entry): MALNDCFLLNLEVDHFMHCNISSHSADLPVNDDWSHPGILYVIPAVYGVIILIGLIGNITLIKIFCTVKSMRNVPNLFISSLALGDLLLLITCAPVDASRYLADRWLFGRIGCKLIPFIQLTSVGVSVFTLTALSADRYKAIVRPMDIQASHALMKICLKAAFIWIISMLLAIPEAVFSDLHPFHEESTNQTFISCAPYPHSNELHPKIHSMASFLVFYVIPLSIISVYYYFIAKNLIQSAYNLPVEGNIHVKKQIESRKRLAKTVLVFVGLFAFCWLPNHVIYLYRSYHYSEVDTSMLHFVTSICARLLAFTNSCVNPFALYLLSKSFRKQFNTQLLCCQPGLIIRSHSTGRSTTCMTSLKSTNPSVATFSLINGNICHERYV
Assay: cell-based or functional assay

Row | Binder | hIP1 GRPR EC50
1 | B1 | 101 nM
2 | B2 | 21.4 nM
3 | B3 | 3.9 nM
4 | {C18 diacid}-[γGlu][AEEA][AEEA]RNHWAV[dA]HL[Nle] [Peptide 156] | 358 nM
5 | {C20 diacid}-[γGlu]GNHWAV[dA]HL[Nle] [Peptide 164] | 125 nM
6 | B4 | 1.68 nM
7 | {C20 diacid}-[γGlu]RNHWAV[dA]HL[Nle] [Peptide 155] | 132 nM
8 | B5 | 7.09 nM
9 | {C18 diacid}-[γGlu][AEEA][AEEA]GRHWAV[dA]HL[Nle] [Peptide 166] | 248 nM
10 | B6 | 1.55 nM
11 | {C20 diacid}-[γGlu]RRHWAV[dA]HL[Nle] [Peptide 163] | 88.5 nM
12 | B7 | 2.92 nM
13 | {C18 diacid}-[γGlu][AEEA][AEEA]RRHWAV[dA]HL[Nle] [Peptide 157] | 161 nM
14 | {C20 diacid}-[γGlu]GRHWAV[dA]HL[Nle] [Peptide 162] | 19.6 nM
15 | B8 | 31.5 nM
16 | B9 | 2.87 nM
17 | B10 | 1.08 nM
